“Also recorded” adds a separate entry of the source.
B1: PpAoBG: same acid lactase/β-Galactosidase enzyme as the Maxilact A4, expressed in a Pichia pistoris system (protein, UniProt Q2UCU3 19-1005, looked up)
Beta-galactosidase A: ASIKHRLNGFTILEHPDPAKRDLLQDIVTWDDKSLFINGERIMLFSGEVHPFRLPVPSLWLDIFHKIRALGFNCVSFYIDWALLEGKPGDYRAEGIFALEPFFDAAKEAGIYLIARPGSYINAEVSGGGFPGWLQRVNGTLRSSDEPFLKATDNYIANAAAAVAKAQITNGGPVILYQPENEYSGGCCGVKYPDADYMQYVMDQARKADIVVPFISNDASPSGHNAPGSGTGAVDIYGHDSYPLGFDCANPSVWPEGKLPDNFRTLHLEQSPSTPYSLLEFQAGAFDPWGGPGFEKCYALVNHEFSRVFYRNDLSFGVSTFNLYMTFGGTNWGNLGHPGGYTSYDYGSPITETRNVTREKYSDIKLLANFVKASPSYLTATPRNLTTGVYTDTSDLAVTPLIGDSPGSFFVVRHTDYSSQESTSYKLKLPTSAGNLTIPQLEGTLSLNGRDSKIHVVDYNVSGTNIIYSTAEVFTWKKFDGNKVLVLYGGPKEHHELAIASKSNVTIIEGSDSGIVSTRKGSSVIIGWDVSSTRRIVQVGDLRVFLLDRNSAYNYWVPELPTEGTSPGFSTSKTTASSIIVKAGYLLRGAHLDGADLHLTADFNATTPIEVIGAPTGAKNLFVNGEKASHTVDKNGIWSSEVKYAAPEIKLPGLKDLDWKYLDTLPEIKSSYDDSAWVSADLPKTKNTHRPLDTPTSLYSSDYGFHTGYLIYRGHFVANGKESEFFIRTQGGSAFGSSVWLNETYLGSWTGADYAMDGNSTYKLSQLESGKNYVITVVIDNLGLDENWTVGEETMKNPRGILSYKLSGQDASAITWKLTGNLGGEDYQDKVRGPLNEGGLYAERQGFHQPQPPSESWESGSPLEGLSKPGIGFYTAQFDLDLPKGWDVPLYFNFGNNTQAARAQLYVNGYQYGKFTGNVGPQTSFPVPEGILNYRGTNYVALSLWALESDGAKLGSFELSYTTPVLTGYGNVESPEQPKYEQRKGAY
modifications: expressed in Pichia pastoris
notes: same acid lactase/β-Galactosidase enzyme as the Maxilact A4, expressed in a Pichia pistoris system
B2: E804A: A. oryzae β-galactosidase variant, E804A (protein, UniProt Q2UCU3 19-1005, looked up, variant E804A)
Beta-galactosidase A: ASIKHRLNGFTILEHPDPAKRDLLQDIVTWDDKSLFINGERIMLFSGEVHPFRLPVPSLWLDIFHKIRALGFNCVSFYIDWALLEGKPGDYRAEGIFALEPFFDAAKEAGIYLIARPGSYINAEVSGGGFPGWLQRVNGTLRSSDEPFLKATDNYIANAAAAVAKAQITNGGPVILYQPENEYSGGCCGVKYPDADYMQYVMDQARKADIVVPFISNDASPSGHNAPGSGTGAVDIYGHDSYPLGFDCANPSVWPEGKLPDNFRTLHLEQSPSTPYSLLEFQAGAFDPWGGPGFEKCYALVNHEFSRVFYRNDLSFGVSTFNLYMTFGGTNWGNLGHPGGYTSYDYGSPITETRNVTREKYSDIKLLANFVKASPSYLTATPRNLTTGVYTDTSDLAVTPLIGDSPGSFFVVRHTDYSSQESTSYKLKLPTSAGNLTIPQLEGTLSLNGRDSKIHVVDYNVSGTNIIYSTAEVFTWKKFDGNKVLVLYGGPKEHHELAIASKSNVTIIEGSDSGIVSTRKGSSVIIGWDVSSTRRIVQVGDLRVFLLDRNSAYNYWVPELPTEGTSPGFSTSKTTASSIIVKAGYLLRGAHLDGADLHLTADFNATTPIEVIGAPTGAKNLFVNGEKASHTVDKNGIWSSEVKYAAPEIKLPGLKDLDWKYLDTLPEIKSSYDDSAWVSADLPKTKNTHRPLDTPTSLYSSDYGFHTGYLIYRGHFVANGKESEFFIRTQGGSAFGSSVWLNETYLGSWTGADYAMDGNSTYKLSQLESGKNYVITVVIDNLGLDANWTVGEETMKNPRGILSYKLSGQDASAITWKLTGNLGGEDYQDKVRGPLNEGGLYAERQGFHQPQPPSESWESGSPLEGLSKPGIGFYTAQFDLDLPKGWDVPLYFNFGNNTQAARAQLYVNGYQYGKFTGNVGPQTSFPVPEGILNYRGTNYVALSLWALESDGAKLGSFELSYTTPVLTGYGNVESPEQPKYEQRKGAY
B3: ML: acid lactase/β-Galactosidase enzyme preparation from Aspergillus oryzae expressed in Aspergillus niger (protein, UniProt Q2UCU3 19-1005, looked up)
Beta-galactosidase A: ASIKHRLNGFTILEHPDPAKRDLLQDIVTWDDKSLFINGERIMLFSGEVHPFRLPVPSLWLDIFHKIRALGFNCVSFYIDWALLEGKPGDYRAEGIFALEPFFDAAKEAGIYLIARPGSYINAEVSGGGFPGWLQRVNGTLRSSDEPFLKATDNYIANAAAAVAKAQITNGGPVILYQPENEYSGGCCGVKYPDADYMQYVMDQARKADIVVPFISNDASPSGHNAPGSGTGAVDIYGHDSYPLGFDCANPSVWPEGKLPDNFRTLHLEQSPSTPYSLLEFQAGAFDPWGGPGFEKCYALVNHEFSRVFYRNDLSFGVSTFNLYMTFGGTNWGNLGHPGGYTSYDYGSPITETRNVTREKYSDIKLLANFVKASPSYLTATPRNLTTGVYTDTSDLAVTPLIGDSPGSFFVVRHTDYSSQESTSYKLKLPTSAGNLTIPQLEGTLSLNGRDSKIHVVDYNVSGTNIIYSTAEVFTWKKFDGNKVLVLYGGPKEHHELAIASKSNVTIIEGSDSGIVSTRKGSSVIIGWDVSSTRRIVQVGDLRVFLLDRNSAYNYWVPELPTEGTSPGFSTSKTTASSIIVKAGYLLRGAHLDGADLHLTADFNATTPIEVIGAPTGAKNLFVNGEKASHTVDKNGIWSSEVKYAAPEIKLPGLKDLDWKYLDTLPEIKSSYDDSAWVSADLPKTKNTHRPLDTPTSLYSSDYGFHTGYLIYRGHFVANGKESEFFIRTQGGSAFGSSVWLNETYLGSWTGADYAMDGNSTYKLSQLESGKNYVITVVIDNLGLDENWTVGEETMKNPRGILSYKLSGQDASAITWKLTGNLGGEDYQDKVRGPLNEGGLYAERQGFHQPQPPSESWESGSPLEGLSKPGIGFYTAQFDLDLPKGWDVPLYFNFGNNTQAARAQLYVNGYQYGKFTGNVGPQTSFPVPEGILNYRGTNYVALSLWALESDGAKLGSFELSYTTPVLTGYGNVESPEQPKYEQRKGAY
modifications: enzyme preparation expressed in Aspergillus niger

Experiments:
Assay type in all cases: biochemical
[1] = Standard mogroside biocatalytic assay, mogroside V substrate
Method: (§1) Standard mogroside biocatalytic assays were performed at 37° C. in 500 μL, volume 50 mM sodium citrate buffer pH 5.6, 10 mM magnesium chloride, 10 mM substrate (typically mogroside V) and 50 μg mL−1 enzyme, and incubated for 24-96 hours. Mogroside glucosidation activity was detected by direct HPLC detection and quantification of mogroside V substrate and mogroside products from filtered reaction supernatant, and quantified by comparison with standard curves based on peak.
(§2) Mogroside compounds HPLC separation and quantification was conducted using a Synergi Hydro-RP column (250 mm×4.6 mm or 150 mm×4.6 mm) with an initial flow rate of 1 mL min−1 and a water: acetonitrile gradient as per below, similar to that described by Zhou et al. (WO 2014/150127). Compounds were detected at 210 nm using diode array detector (Agilent Technologies, USA), and calibration curves established using standard curves from 0.1 to 10 mM.
(§3) Cells expressing enzyme variants grown in buffered minimal medium were induced for 72 hr with 1% methanol (refreshed every 24 hr), the culture supernatant harvested and assayed for standard ONPG activity over 30 minutes and mogroside V activity at pH 5.6, 37° C. for 72 hrs. The resultant activity data (Table 2) identified E200 and D258 as the likely catalytic pair for acid/base and nucleophilic attack of mogroside V by the A. oryzae β-glucosidase enzyme.

[2] = Reaction distributions (product ratios) of beta-galactosidase preparations; details: 12.8 g/L MG-V (10 mM), pH 6.0, 50° C., 96 hrs
Method: as §2
Reaction distributions were evaluated for G5160 beta-galactosidase (Sigma), Maxilact A4 beta-galactosidase (DSM) and Pp-Aspergillus oryzae beta-galactosidase.
Using 12.8 g/L MG-V (10 mM) at pH 6.0, 50° C. for 96 hrs reaction time

[3] = Mogroside biocatalytic assay, equimolar MogV:SiaI substrate; details: comparison of wildtype and variant
Method: as §1, §2

[4] = β-galactosidase ONPG activity assay; details: oNPG substrate, over 30 minutes
Method: Standard β-galactosidase assays were performed at room temperature using o-nitrophenyl-β-D-galactopyranoside (ONPG, Sigma) as a substrate in […] with detection of o-nitrophenol release at 420 nm (UV-Spectra Max Spectrophotometer, Molecular Devices, USA). A typical reaction contained 50 mM sodium citrate buffer pH 5.6, 10 mM magnesium chloride and 100 mM potassium chloride with 2 mM ONPG and the desired amount of enzyme (usually […]). Partially purified AoBG (Sigma G5160, USA) was used as a positive control at a final concentration of 1 U mL−1. Vmax was calculated using the SpectraMax Plus software (Molecular Devices, USA) and when required kinetics were determined by varying the concentration of substrate and kinetic determinants calculated using Hyper™ (J. S. Easterby, Liverpool University).
as §3

[5] = Mogroside hydrolysis, 72 h, 37 C., pH 5.6
[6] = product ratio, 72 h, 37 C., pH 5.6

Molecule	Siamenoside I produced ([1]; mogV assay, HPLC analysis, 37° C., after 48 hrs) [%]	Mog III [2] [%]	Mog IV [2] [%]	Mog V [2] [%]	Siam I [2] [%]	Siamenoside I production/yield from mogroside V (in words) [1]	Initial Rate ([1]; Mogroside hydrolysis, 37 C., pH 5.6) [µmol/min/mg]	Reaction Progress [1, 5] [%]	Sia 1 [1, 5] [%]	Sia:MogIII [1, 6]	Sia:MogIV [1, 6]	effectiveness of Siamenoside I as a substrate in the presence of mogroside V (in words) [3]	oNPG [4] [mAu/min/mg]
B1	~32	12	21	24	43								
B2						increased ratio of Siamenoside I production; also recorded: increased Siamenoside I yield	3.06	78	62	18.6	3.3	reducing the effectiveness of Siamenoside I as a substrate	34.7 ± 0.4
B3		17	12	22	49								

From patent US12247238B2, “Mogroside biocatalysis methods and products” (The Coca-Cola Company, priority 2019, dated 2025)
